Where a chain is given by its changes, count along the chain named. Each block holds one binder with its values, some of them ahead of it.
Experiments:
[1] = biological target: human CD3 on T cells (Jurkat reporter cells, human primary T cells) (human) (UniProt P07766); test: cell-based or functional assay
[2] = biological target: T1, recombinant human CD3E (ECD) (human, UniProt P07766 23-126); test: ELISA with human CD3E; % Binding plotted against pH (6.0 to 7.4), relative to pH 6.0; Fab concentration not shown on the sheet
T1 construct: extracellular domain; This is the coated antigen of the ELISA; also called extracellular domain of human CD3E
Procedure: (§1) The plates were then blocked with 200 μL ELISA assay diluents with BSA after discarding the coating solution and washing three times with washing buffer (pH-adjusted 1×PBS+0.05% Tween). […] The plates were washed three times with pH-adjusted 1×PBS buffer and incubated with horseradish peroxidase (HRP) conjugated with goat anti-human IgG Fc for about 30 minutes (min) to one hour. After washing three times, the bound HRP enzyme was detected by addition of 100 μL/well […] substrate (BioFX Laboratories, MD, USA) for about 1 to 5 min and then the detection of color was done based on 630 nm absorption. The pH-adjusted 1×PBS buffer of about pH 6.0, 6.1, 6.2, 6.3, 6.4, 6.5, 6.6, 6.7, 6.8, 6.9, 7.0, 7.1, 7.2, 7.3, 7.4, 7.5 or 7.6 can be based on a regular PBS buffer that is substantially the same as the well-known Cold Spring Harbor Lab's recipe which comprises 137 mM NaCl, 2.7 mM KCl, 10 mM Na₂HPO₄, 1.8 mM KH₂PO₄, and optionally 1 mM CaCl₂) and 0.5 mM MgCl₂, wherein the buffer's pH is adjusted using HCl or H₃PO₄. Alternatively, the pH-adjusted 1×PBS buffers can be based on a modified PBS recipe that comprises 118-146 mM NaCl, 2.7 mM KCl, 10 mM Na₂HPO₄, 1.8 mM KH₂PO₄, and optionally 1 mM CaCl₂) and 0.1-0.8 mM MgCl₂, iron (0-9 mM), sulfide (0.8-5 mM), and optionally further comprising one or more components selected from the following: 5-15 mM D-glucose, NaHCO₃(5-20 mM), 0.1 mM NEAA (non-essential amino acids), 2-20 mM lactic acid and 0.1-0.5% BSA, wherein the buffer's pH is adjusted using HCl or H₃PO₄.

[3] = biological target: T2, extracellular domain of cynomolgus monkey CD3E (cynomolgus monkey, UniProt Q95LI5 22-117); test: ELISA with monkey CD3E; % Binding plotted against pH (6.0 to 7.4), relative to pH 6.0; Fab concentration not shown on the sheet
T2 construct: extracellular domain; This is the coated antigen of the ELISA; also called cyno CD3
T2 sequence (looked up): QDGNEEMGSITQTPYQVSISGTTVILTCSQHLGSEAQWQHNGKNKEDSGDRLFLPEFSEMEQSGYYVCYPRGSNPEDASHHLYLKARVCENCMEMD
Procedure: as §1, with “Alternatively, the pH-adjusted 1×PBS buffers can be based on a modified PBS recipe that comprises 118-146 mM NaCl, 2.7 mM KCl, 10 mM Na₂HPO₄, 1.8 mM KH₂PO₄, and optionally 1 mM CaCl₂) and 0.1-0.8 mM MgCl₂, iron (0-9 mM), sulfide (0.8-5 mM), and optionally further comprising one or more components selected from the following: 5-15 mM D-glucose, NaHCO₃(5-20 mM), 0.1 mM NEAA (non-essential amino acids), 2-20 mM lactic acid and 0.1-0.5% BSA, wherein the buffer's pH is adjusted using HCl or H₃PO₄.” left out

T1 sequence (P07766 23-126): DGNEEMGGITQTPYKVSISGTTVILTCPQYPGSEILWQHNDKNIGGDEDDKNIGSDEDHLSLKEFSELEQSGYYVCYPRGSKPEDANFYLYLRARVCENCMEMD
Sequence of human CD3 on T cells (Jurkat reporter cells, human primary T cells) (human) (P07766 23-207): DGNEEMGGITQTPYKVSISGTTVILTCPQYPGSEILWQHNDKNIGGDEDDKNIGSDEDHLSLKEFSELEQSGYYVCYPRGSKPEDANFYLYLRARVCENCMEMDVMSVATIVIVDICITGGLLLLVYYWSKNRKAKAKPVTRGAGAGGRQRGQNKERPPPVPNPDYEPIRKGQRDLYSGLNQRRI

B1: CD3(h10.v39)×TROP-2(RS7.v1) assembled in a human IgG1-Fc (Knobs-in-Holes) (bispecific antibody, not shown: a dimerising Fc or GST)
heavy: EVQLVQSGAEVKKPGASVKVSCKASGYTFTSYYTHWVRQAPGQGLEWIGWIYPGDFNTKFNEKFKGRVTLTADTSASTAYMELSSLRSEDTAVYYCARDHYGYYYFDYWGQGTLVTVSS
light: DIVMTQSPDSLAVSLGERATINCKSSQSLLNSRTRHNYLAWYQQKPGQPPKLLIYWATTRASGVPDRFSGSGSGTDFTLTISSLQAEDVAVYYCIQSYTGRTFGGGTKVEIK
VH: EVQLQQSGSELKKPGASVKVSCKASGYTFTNYGMNWVKQAPGQGLKWMGWINTYTGEPTYTDDFKGRFAFSLDTSVSTAYLQISSLKADDTAVYFCARGGFGSSYWYFDVWGQGSLVTVSS
VL: DIQLTQSPSSLSASVGDRVSITCKASQDVSIAVAWYQQKPGKAPKLLIYSASYRYTGVPDRFSGSGSGTDFTLTISSLQPEDFAVYYCQQHYITPLTFGAGTKVEIK
- percent killing of MDA-MB-468 cells at the pH 6.6 ECmax dose, pH 7.4 [1]: 16%
- percent killing of TROP-2-high MDA-MB-468 cells, pH 6.6 [1]: 100%

B2: CD3 (h10.v38)×TROP-2 (RS7.v1) hIgG1-Fc (KiH) (bispecific antibody, not shown: a dimerising Fc or GST)
heavy: B1 heavy with T34Y
light: B1 light
VH: B1 VH
VL: B1 VL
- T cell mediated killing of DU-145 cells, EC50, pH 6.9 [1]: 144 nM
- T cell mediated killing of MDA-MB-468 cells, EC50, pH 6.6 [1]: 0.3 nM
- T cell mediated killing of MDA-MB-468 cells, EC50, pH 7.0 [1]: 9 nM
- T cell mediated killing of MDA-MB-468 cells, ECmax, pH 6.6 [1]: 30 nM
- fold reduction of MDA-MB-468 killing potency with human PBMCs (E:T about 5.5:1), pH 7.4 against pH 6.6 [1]: 80 fold

- binding result [2]: binds
B3: h10.v38 (Fab) (Fab, V domains shown)
VH: B1 heavy with T34Y
VL: B1 light
notes: Tested as a Fab

- binding result [2]: binds
B4: h10.v27 (Fab) (Fab, V domains shown)
VH: B1 heavy with T34Y
VL: B1 light with A61D
notes: Tested as a Fab

- binding result [2]: binds
- binding result [3]: binds
B5: h10.v1 (Fab) (Fab, V domains shown)
VH: B1 heavy with T34V, H100A, G102S
VL: B1 light with H36K, A61D, G100T
notes: Tested as a Fab; the Fab constant domains are not; also called non-pH-selective conventional control clone; conventional anti-CD3 control antibody

- binding result [2]: binds
B6: h10.v49 (Fab) (Fab, V domains shown)
VH: B1 heavy with T34Y, G102H, Y103Q
VL: B1 light
notes: Tested as a Fab

- binding result [2]: binds
B7: h10.v23 (Fab) (Fab, V domains shown)
VH: B1 heavy with T34V
VL: B1 light
notes: Purified and used as a Fab; also called anti-CD3 clone h10.v23

From patent publication US20240279334A1 (AMBERSTONE BIOSCIENCES, published 2024)
